One substance from US20240261333A1, “NOVEL TARGETS FOR ENHANCING ANTI-TUMOR IMMUNITY” (THE BROAD INSTITUTE, INC., priority 2021, published 2024) can be followed below.

Among the targets are ARPC4 (human) (UniProt P59998); CAT (human) (UniProt P04040); CSE1L (human) (UniProt P55060); DNAJC3 (human) (UniProt Q13217); EIF5B (human) (UniProt O60841); HNRNPA2B1 (human) (UniProt P22626); HNRNPK (human) (UniProt P61978); KRT4 (human) (UniProt P19013); KRT6B (human) (UniProt P04259); NUFIP2 (human) (UniProt Q7Z417); PRBP1 (human) (UniProt P26599); PUM1 (human) (UniProt Q14671); RBM39 (human) (UniProt Q14498); RPL10 (human) (UniProt P27635); RPL13 (human) (UniProt P26373); RPL18 (human) (UniProt Q07020); RPS28 (human) (UniProt P62857); SPTAN1 (human) (UniProt Q13813); UBAP2L (human) (UniProt Q14157).

Common to all, as to experiment: co-IP, IgG control, lysate of cells with N-FLAG B3GNT2; mass spectrometry
Another assay has as its target T1, MOV10 (human) (UniProt Q9HCE1).
T1 sequence (looked up): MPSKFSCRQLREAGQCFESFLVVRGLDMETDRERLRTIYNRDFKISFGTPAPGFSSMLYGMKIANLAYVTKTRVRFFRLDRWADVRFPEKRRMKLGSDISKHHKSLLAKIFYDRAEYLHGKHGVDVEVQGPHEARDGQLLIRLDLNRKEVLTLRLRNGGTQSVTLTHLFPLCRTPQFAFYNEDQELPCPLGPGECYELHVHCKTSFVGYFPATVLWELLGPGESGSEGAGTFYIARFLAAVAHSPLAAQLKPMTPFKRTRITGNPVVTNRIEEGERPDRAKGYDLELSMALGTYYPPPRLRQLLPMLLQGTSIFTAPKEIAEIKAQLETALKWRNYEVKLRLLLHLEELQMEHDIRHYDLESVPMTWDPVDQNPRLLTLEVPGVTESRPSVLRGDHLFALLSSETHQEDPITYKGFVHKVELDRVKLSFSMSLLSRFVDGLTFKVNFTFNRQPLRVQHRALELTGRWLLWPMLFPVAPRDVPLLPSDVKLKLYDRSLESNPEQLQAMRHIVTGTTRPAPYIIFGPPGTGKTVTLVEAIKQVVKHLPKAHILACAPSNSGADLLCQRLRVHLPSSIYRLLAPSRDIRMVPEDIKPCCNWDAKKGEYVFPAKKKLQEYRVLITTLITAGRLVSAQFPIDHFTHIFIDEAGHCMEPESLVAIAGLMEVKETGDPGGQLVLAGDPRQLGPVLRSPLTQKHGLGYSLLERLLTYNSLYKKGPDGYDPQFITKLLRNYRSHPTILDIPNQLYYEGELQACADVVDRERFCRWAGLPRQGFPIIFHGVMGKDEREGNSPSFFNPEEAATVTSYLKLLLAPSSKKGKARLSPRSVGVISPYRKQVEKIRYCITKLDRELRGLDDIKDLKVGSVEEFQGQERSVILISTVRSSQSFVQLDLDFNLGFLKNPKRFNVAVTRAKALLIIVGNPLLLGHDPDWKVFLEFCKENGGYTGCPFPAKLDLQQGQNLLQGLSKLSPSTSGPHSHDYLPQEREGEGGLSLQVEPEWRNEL

Another assay addresses T2, SERBP1 (human) (UniProt Q8NC51).
T2 sequence (looked up): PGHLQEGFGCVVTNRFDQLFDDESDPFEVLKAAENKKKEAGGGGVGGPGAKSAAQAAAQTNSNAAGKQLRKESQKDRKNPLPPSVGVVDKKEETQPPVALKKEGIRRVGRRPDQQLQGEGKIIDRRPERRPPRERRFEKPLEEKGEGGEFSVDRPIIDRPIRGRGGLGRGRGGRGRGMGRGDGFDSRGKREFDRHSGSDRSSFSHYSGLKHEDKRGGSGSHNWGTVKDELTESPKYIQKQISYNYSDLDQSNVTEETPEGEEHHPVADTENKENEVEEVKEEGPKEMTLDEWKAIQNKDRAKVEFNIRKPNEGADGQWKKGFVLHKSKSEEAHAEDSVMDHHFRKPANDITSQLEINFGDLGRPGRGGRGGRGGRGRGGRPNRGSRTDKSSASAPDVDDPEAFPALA

Sequence of NUFIP2 (human) (Q7Z417 whole entry): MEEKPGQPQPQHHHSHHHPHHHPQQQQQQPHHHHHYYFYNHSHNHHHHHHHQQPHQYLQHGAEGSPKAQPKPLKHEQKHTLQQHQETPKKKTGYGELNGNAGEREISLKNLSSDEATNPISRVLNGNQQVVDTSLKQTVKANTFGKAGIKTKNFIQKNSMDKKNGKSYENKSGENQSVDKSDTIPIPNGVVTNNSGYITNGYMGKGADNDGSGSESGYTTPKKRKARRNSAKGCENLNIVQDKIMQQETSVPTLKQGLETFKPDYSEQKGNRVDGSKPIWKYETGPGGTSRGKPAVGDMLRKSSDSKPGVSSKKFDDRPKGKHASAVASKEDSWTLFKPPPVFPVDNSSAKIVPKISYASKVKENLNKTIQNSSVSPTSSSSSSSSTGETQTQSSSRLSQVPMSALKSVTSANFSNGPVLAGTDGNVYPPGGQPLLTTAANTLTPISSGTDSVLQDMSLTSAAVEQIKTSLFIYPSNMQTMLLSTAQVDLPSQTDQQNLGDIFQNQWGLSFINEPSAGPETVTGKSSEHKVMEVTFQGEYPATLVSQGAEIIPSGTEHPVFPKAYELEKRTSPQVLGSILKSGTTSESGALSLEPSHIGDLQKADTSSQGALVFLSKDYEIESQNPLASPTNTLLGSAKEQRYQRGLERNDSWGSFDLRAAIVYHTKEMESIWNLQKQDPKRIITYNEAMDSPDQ
Sequence of HNRNPA2B1 (human) (P22626 other isoform, or with tags, fused parts or gaps limits assumed): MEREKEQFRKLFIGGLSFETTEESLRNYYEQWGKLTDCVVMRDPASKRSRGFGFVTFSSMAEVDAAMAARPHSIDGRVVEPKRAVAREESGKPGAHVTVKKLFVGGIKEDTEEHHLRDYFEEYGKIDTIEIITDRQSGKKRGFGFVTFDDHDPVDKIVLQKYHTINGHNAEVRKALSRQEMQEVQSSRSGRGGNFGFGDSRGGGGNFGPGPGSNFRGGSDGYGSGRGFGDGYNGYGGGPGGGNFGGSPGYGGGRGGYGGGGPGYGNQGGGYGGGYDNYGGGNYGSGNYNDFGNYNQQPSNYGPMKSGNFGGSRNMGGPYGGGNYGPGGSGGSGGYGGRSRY
Sequence of CSE1L (human) (P55060 other isoform, or with tags, fused parts or gaps limits assumed): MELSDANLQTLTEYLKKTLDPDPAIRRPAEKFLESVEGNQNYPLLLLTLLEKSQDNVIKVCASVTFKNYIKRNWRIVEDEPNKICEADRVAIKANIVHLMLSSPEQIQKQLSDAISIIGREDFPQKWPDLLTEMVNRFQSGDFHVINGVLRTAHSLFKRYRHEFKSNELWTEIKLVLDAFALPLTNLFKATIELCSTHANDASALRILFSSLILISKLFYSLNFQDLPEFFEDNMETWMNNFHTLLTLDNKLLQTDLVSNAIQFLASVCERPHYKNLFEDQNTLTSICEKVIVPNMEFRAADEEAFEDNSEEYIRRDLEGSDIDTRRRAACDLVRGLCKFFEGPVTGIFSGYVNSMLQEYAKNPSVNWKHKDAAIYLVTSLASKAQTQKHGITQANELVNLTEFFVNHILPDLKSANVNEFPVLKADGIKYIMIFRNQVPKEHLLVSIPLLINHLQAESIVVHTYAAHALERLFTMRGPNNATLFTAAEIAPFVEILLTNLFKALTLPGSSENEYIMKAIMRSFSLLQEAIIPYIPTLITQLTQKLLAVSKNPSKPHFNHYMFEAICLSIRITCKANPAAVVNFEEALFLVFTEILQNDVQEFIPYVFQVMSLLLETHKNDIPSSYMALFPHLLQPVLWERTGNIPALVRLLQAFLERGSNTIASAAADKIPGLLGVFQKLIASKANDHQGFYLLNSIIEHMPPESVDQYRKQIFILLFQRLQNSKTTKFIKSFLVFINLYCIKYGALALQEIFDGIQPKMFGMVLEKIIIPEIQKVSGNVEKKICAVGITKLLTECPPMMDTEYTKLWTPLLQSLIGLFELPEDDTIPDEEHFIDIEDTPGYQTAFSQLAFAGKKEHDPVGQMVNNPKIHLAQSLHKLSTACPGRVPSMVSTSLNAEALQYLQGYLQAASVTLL
Sequence of PUM1 (human) (Q14671 other isoform, or with tags, fused parts or gaps limits assumed): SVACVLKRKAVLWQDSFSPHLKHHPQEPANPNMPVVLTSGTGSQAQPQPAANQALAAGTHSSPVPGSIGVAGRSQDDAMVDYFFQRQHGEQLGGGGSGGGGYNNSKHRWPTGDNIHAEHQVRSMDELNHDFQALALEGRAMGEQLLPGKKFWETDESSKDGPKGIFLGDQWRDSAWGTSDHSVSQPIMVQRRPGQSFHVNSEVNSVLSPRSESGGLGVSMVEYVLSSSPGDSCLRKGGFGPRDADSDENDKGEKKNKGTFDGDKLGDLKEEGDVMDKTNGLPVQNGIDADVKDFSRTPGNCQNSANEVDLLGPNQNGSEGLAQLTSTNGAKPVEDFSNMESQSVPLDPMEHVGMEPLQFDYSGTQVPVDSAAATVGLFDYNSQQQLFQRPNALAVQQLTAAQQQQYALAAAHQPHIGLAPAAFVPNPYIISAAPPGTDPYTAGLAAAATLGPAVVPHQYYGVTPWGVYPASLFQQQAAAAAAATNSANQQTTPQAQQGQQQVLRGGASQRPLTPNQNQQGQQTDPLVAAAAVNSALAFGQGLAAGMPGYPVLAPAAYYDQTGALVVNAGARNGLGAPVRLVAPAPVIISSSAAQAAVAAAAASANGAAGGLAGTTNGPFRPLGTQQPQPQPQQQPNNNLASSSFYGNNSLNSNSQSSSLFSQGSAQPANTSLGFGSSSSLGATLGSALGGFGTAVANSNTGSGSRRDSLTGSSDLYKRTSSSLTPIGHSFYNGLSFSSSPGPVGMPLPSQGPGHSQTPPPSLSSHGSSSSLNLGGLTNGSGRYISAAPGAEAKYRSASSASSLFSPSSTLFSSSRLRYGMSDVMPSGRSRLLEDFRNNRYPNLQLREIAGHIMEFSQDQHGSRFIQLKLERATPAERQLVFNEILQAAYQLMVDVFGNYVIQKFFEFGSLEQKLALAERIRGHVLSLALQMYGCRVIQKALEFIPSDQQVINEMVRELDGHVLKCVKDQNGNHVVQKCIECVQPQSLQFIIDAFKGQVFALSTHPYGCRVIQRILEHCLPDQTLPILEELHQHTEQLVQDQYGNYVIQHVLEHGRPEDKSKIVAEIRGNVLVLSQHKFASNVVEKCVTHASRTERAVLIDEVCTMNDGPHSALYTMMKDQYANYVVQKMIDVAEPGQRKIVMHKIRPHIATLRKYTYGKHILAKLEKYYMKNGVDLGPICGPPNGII
Sequence of PRBP1 (human) (P26599 whole entry): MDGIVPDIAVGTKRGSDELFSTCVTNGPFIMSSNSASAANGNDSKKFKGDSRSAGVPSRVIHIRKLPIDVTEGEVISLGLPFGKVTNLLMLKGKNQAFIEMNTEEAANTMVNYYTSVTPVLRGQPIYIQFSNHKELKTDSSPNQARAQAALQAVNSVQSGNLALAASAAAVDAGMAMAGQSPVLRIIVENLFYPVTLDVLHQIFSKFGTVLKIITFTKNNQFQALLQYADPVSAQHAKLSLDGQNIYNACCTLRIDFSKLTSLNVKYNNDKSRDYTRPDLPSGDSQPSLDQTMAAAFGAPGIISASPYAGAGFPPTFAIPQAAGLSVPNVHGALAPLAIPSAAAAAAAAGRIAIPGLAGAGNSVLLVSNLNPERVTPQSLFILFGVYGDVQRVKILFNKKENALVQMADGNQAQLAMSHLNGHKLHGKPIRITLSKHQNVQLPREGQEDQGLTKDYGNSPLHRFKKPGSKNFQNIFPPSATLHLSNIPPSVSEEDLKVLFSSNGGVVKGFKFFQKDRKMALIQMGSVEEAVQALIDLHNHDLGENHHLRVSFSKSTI
Sequence of KRT6B (human) (P04259 2-564 limits assumed): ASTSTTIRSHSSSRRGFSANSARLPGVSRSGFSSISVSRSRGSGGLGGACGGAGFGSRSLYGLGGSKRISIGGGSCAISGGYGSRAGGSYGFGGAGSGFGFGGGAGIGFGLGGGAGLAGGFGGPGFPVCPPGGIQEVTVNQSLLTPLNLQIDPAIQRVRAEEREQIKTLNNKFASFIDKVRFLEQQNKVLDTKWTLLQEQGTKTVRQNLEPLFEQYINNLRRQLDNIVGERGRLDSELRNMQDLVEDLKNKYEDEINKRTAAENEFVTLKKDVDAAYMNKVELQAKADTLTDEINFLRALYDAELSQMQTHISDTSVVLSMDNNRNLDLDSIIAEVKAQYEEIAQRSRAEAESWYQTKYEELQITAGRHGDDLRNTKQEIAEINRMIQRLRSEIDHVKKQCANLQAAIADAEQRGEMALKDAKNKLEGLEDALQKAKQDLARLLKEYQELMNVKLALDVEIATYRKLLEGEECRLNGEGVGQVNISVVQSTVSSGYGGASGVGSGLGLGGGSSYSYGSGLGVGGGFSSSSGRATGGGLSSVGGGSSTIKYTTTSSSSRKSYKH
Sequence of RBM39 (human) (Q14498 other isoform, or with tags, fused parts or gaps limits assumed): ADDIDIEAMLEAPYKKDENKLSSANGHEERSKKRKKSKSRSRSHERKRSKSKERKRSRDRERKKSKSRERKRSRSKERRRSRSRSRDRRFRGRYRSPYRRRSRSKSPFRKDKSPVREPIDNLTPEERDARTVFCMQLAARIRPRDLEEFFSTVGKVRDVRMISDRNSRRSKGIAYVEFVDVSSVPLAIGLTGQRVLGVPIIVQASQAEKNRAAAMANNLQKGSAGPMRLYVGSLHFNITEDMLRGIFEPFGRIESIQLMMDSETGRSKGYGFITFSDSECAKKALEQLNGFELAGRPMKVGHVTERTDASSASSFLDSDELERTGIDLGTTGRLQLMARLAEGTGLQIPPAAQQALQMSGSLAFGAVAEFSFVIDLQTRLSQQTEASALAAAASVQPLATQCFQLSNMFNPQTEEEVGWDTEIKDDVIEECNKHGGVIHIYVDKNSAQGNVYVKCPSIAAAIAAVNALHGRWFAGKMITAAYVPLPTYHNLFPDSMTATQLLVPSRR

In the case of “IgG control (Millipore Sigma 12-371) (antibody)”, the co-IP mass spectrometry count with ARPC4 (human) was 0; in the assay with CAT (human), 2; with CSE1L (human), 0; with DNAJC3 (human), 0; with EIF5B (human), 0; in the assay with HNRNPA2B1 (human), 4. Moreover, the co-IP mass spectrometry count in the assay with HNRNPK (human) worked out at 8; with KRT4 (human) it was 21; with KRT6B (human), 316; in the assay with MOV10 (human), 3; with NUFIP2 (human), 3; with PRBP1 (human), 7. Further, the co-IP mass spectrometry count with PUM1 (human) was determined as 0; with RBM39 (human) it was 5; with RPL10 (human) it was 3; in the assay with RPL13 (human) it was 6; with RPL18 (human), 5; with RPS28 (human), 0. In addition, the co-IP mass spectrometry count in the assay with SERBP1 (human) is 4; in the assay with SPTAN1 (human), 0; with UBAP2L (human), 20.
